Test results published in patent publication US20160280794A1 (published 2016).

Target: T1, CD20 (human, UniProt P11836 1-297)
T1 chain: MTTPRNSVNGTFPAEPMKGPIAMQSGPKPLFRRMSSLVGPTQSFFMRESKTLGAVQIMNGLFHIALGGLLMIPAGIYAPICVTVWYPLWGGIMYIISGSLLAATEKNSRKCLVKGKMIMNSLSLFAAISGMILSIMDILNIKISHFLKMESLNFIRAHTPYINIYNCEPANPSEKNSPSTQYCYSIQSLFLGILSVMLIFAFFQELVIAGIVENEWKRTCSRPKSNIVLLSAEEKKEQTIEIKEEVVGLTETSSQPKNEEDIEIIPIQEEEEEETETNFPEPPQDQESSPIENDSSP
Assay: FACS binding; Ramos cells

B1: Rituximab (antibody)
chain 1: not shown
chain 2: QIVLSQSPAILSASPGEKVTMTCRASSSVSYIHWFQQKPGSSPKPWIYATSNLASGVPVRFSGSGSGTSYSLTISRVEAEDAATYYCQQWTSNPPTFGGGTKLEIKRTVAAPSVFIFPPSDEQLKSGTASVVCLLNNFYPREAKVQWKVDNALQSGNSQESVTEQDSKDSTYSLSSTLTLSKADYEKHKVYACEVTHQGLSSPVTKSFNRGEC
  EC50: 1.13 µg/mL
